Drawing on US8883977B2, “MUC1 antibody” (Shionogi & Co., Ltd., priority 2010, dated 2014), this text covers Kd for one molecule.

This experiment has as its target T1, Biotin-STn(DT*R)-20 (Homo sapiens, UniProt P15941).
T1 construct: Synthesis of MUC1 Tn20-Mer Glycopeptide; made in house; host or cells: chemical solid-phase synthesis
Kind of experiment: Affinity of antibody, Biacore T100, Sensor Chip SA. The format is binding. The following applies: Biotin-STn(DT*R)-20 on Sensor Chip SA; read-out: dissociation constant KD. The method, then:
Biotin-STn(DT*R)-20 was solid-phased on a Sensor Chip SA (manufactured by GE Healthcare), and a dissociation constant of 12D10 was analyzed using Biacore T100.
Background: In SPR one partner is held on a chip, and binding of the other changes the refractive index at the surface.

T1 sequence (P15941 136-155): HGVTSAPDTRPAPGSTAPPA

B1: 12D10: mouse monoclonal IgG2a anti-MUC1 antibody raised against STn(DT*R)-20-Cys-KLH; variable regions SEQ ID NOs 2 and 3 (protein)
chain 1: EVQLVESGGGLVQPGESLKLSCESNEYEFPSHDMSWVRKTPEKRLELVAAINSDGDNTYYPDTMERRFIISRDNSKKTLYLQMSSLNSADTALYYCARLTLRNWYFDVWGAGTTVTVSS
chain 2: DIVMSQSPSSLPVSVGEKVTMSCKSSQSLLYSTNQQNYLAWYQQKSGQSPKLLVYWASTRESGVPDRFTGSGSGTDFTLTISSLKAEDLAVYYCQQYYRYPPTFGAGTKLELNRA
A word on the Kd: it is the equilibrium constant for the complex coming apart. Regarding B1, the Kd was determined as 9.1 nM.
